Laboratory results published in US20240254201A1.

Biological target: EBOV GP on EBOV-eGFP-Mayinga authentic virus (Ebola virus (EBOV), Mayinga) (UniProt Q05320)
Experiment: cell-based or functional assay

EBOV GP on EBOV-eGFP-Mayinga authentic virus (Ebola virus (EBOV), Mayinga), sequence (Q05320 33-676 limits assumed): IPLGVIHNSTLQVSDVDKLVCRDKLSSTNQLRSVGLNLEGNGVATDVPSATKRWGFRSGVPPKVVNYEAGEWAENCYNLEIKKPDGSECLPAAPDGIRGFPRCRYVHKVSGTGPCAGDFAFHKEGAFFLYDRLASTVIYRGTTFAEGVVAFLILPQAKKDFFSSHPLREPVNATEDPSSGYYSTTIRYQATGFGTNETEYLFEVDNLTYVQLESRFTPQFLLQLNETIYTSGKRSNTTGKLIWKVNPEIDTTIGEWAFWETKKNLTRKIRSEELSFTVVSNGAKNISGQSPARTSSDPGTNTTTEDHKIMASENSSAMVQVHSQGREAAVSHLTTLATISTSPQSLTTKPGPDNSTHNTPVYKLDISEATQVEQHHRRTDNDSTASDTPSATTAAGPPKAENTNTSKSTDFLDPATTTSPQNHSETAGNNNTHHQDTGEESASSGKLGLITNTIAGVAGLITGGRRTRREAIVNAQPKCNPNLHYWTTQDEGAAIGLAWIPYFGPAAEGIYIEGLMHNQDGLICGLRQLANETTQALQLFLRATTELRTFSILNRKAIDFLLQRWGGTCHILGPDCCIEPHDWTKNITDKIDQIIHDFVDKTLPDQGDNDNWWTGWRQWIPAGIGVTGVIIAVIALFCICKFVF

CA45 (antibody) showed an IC50, EBOV-eGFP-Mayinga authentic virus neutralization test of 8.51 µg/mL and an IC90, EBOV-eGFP-Mayinga authentic virus neutralization test of 13 µg/mL.
